Measurements taken from patent US20160369009A1 (published 2016).

What was measured:
[1] = target: T1, human kallikrein-2 (hK2) (human, UniProt P20151 25-261); assay: SPR, Biacore 3000, hK2 amine-coupled on CM4 chip, channel fc2, 50 nM antibody, 480 min dissociation
T1 construct: The mature protein is said to be underlined, but the underlining is not recoverable from the text; In the assay hK2 was amine-coupled to a CM4 chip; also called human glandular kallikrein 2; antigen hK2
Procedure: (§1) All binding experiments were performed on CM4 chip on a Biacore 3000 instrument. The chip and all the reagents needed for activation, immobilization, deactivation, binding and regeneration were purchased from GE Healthcare and used according to the guidelines from the manufacturer.
(§2) The dissociation phase data was fitted and the dissociation rate constants (koff) were estimated (see Table 2).

[2] = target: T1, human kallikrein-2 (hK2); assay: SPR, Biacore 3000, hK2 on CM4 chip, mean KD from kon and koff
Procedure: as §1

[3] = target: T1, human kallikrein-2 (hK2); assay: SPR, Biacore 3000, hK2 on CM4 chip, antibody 6.25-100 nM, mean of 18/18 fitted experiments
Procedure: as §1
(§3) In order to estimate the association rate constants, the dissociation rate constants (Table 2) were used in the fitted equations.
(§4) All fitted data was used in order to calculate an average value of the association rate constant and the standard deviation for each antibody (see Table 3).

[4] = target: T1, human kallikrein-2 (hK2); assay: SPR, Biacore 3000, hK2 amine-coupled on CM4 chip, channel fc3, 50 nM antibody, 480 min dissociation
Procedure: as §1, §2

[5] = target: T1, human kallikrein-2 (hK2); assay: SPR, Biacore 3000, hK2 on CM4 chip, mean of channels fc2 and fc3
Procedure: as §1, §2

[6] = target: T1, human kallikrein-2 (hK2); assay: SPR, Biacore 3000, hK2 on CM4 chip, antibody 6.25-100 nM, mean of 15/18 fitted experiments
Procedure: as §1, §3, §4

[7] = target: T1, human kallikrein-2 (hK2); assay: SPR, Biacore 3000, hK2 on CM4 chip, antibody 6.25-100 nM, mean of 17/18 fitted experiments
Procedure: as §1, §3, §4

T1 sequence (P20151 25-261 limits assumed): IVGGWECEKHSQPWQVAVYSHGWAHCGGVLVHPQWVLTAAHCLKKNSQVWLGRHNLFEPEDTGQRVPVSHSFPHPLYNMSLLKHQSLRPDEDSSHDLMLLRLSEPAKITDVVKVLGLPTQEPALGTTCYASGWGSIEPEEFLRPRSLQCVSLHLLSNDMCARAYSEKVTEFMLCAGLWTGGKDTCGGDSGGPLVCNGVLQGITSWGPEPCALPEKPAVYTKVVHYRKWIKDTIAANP

koff [1] [s⁻¹] | Kd [2] [nM] | kon [3] [M⁻¹ s⁻¹] | koff [4] [s⁻¹] | koff [5] [s⁻¹] | kon [6] [M⁻¹ s⁻¹] | kon [7] [M⁻¹ s⁻¹] | Binder
1.9e-05 | 0.19 | 248000 | 4.9e-05 | 3.4e-05 |  |  | murine 11B6 antibody (m11B6), parent murine anti-hK2 monoclonal antibody (antibody, mouse IgG1, kappa, V domains shown, Whole murine IgG obtained from the University of Turku; also called mAb 11B6; ml 1B6) VH: DVQLQESGPGLVKPSQSLSLTCTVTGNSITSDYAWNWIRQFPGNRLEWMGYISYSGSTTYSPSLKSRFSITRDTSKNQFFLQLNSVTPEDTATYFCATGYYYGSGFWGQGTLVTVSS VL: DIVLTQSPASLAVSLGQRATISCRASESVEYFGTSLMHWYRQKPGQPPKLLIYAASNVESGVPARFSGSGSGTDFSLNIQPVEEDDFSMYFCQQTRKVPYTFGGGTKLEIKR
5.8e-05 | 0.54 | 111000 | 5.5e-05 | 5.7e-05 |  |  | h11B6-DFO (humanised 11B6 conjugated with deferoxamine) (antibody, human IgG1, kappa, V domains shown, DFO (deferoxamine) chelator coupled; residues and chain not stated, This is the h11B6 IgG1/kappa carrying DFO; also called h1166-DFO; DFO-h11B6) VH: QVQLQESGPGLVKPSDTLSLTCAVSGNSITSDYAWNWIRQPPGKGLEWIGYISYSGSTTYNPSLKSRVTMSRDTSKNQFSLKLSSVTAVDTAVYYCATGYYYGSGFWGQGTLVTVSS VL: DIVLTQSPDSLAVSLGERATINCKASESVEYFGTSLMHWYQQKPGQPPKLLIYAASNRESGVPDRFSGSGSGTDFTLTISSLQAEDVAVYYCQQTRKVPYTFGQGTKLEIKR
6.4e-05 | 0.65 |  | 6.9e-05 | 6.7e-05 | 117000 |  | humanised 11B6 antibody (h11B6), IgG1/kappa (antibody, V domains shown, Expressed transiently in HEK293 cells; also called h1186) VH: QVQLQESGPGLVKPSDTLSLTCAVSGNSITSDYAWNWIRQPPGKGLEWIGYISYSGSTTYNPSLKSRVTMSRDTSKNQFSLKLSSVTAVDTAVYYCATGYYYGSGFWGQGTLVTVSS VL: DIVLTQSPDSLAVSLGERATINCKASESVEYFGTSLMHWYQQKPGQPPKLLIYAASNRESGVPDRFSGSGSGTDFTLTISSLQAEDVAVYYCQQTRKVPYTFGQGTKLEIKR
6.3e-05 | 0.93 |  | 0.000191 | 0.000127 |  | 182000 | h11B6-DTPA (humanised 11B6 conjugated with DTPA chelator) (antibody, V domains shown, DTPA chelator coupled; residues and chain not stated, This is the h11B6 IgG1/kappa carrying a chelator; also called h1166-DTPA; H1166-DTPA) VH: QVQLQESGPGLVKPSDTLSLTCAVSGNSITSDYAWNWIRQPPGKGLEWIGYISYSGSTTYNPSLKSRVTMSRDTSKNQFSLKLSSVTAVDTAVYYCATGYYYGSGFWGQGTLVTVSS VL: DIVLTQSPDSLAVSLGERATINCKASESVEYFGTSLMHWYQQKPGQPPKLLIYAASNRESGVPDRFSGSGSGTDFTLTISSLQAEDVAVYYCQQTRKVPYTFGQGTKLEIKR
